According to the DeepSol protein solubility set:

assay: soluble on expression in E. coli; label from the status in PepcDB or PDB records

**Q.** Which “soluble on expression in E. coli” value does the source give for “MGSDKIHHHHHHMKIVHTADWHLGKILNGKQLLEDQKYILTQFKQHMEKEQPDLIVIAGDLYDTSYPSKEAIGLLEETIEYLNIELKIPIIMISGNHDGRERLNYGSKWFENNQLYIRTQLENIDDPIELSGVQFFTLPFATVSEVQNYFKDKQIETYQQALNECLEQMSSSIDNNKVNILIGHLTIEGGKTSDSERPLTIGTVESVDMHSFRLFDYVMLGHLHHPFSINNSFIKYSGSILQYSFSEVNQSKGYRVLDIENNQLLNETFVPLKPLRELEVIEGDYEDIIQERIKVKNKNNYFHFKLTNVSHITDPMMKLKQIYPNILALSNVVFDHSENFSHVEIKKQDDQTIIENFYKNMTDQHLSQVQSDKIKHLLSFILDREG” here?
**A.** not soluble

**Q.** With “MGSDKIHHHHHHMKIVKNFRDINTLIPGWGDKMSEVSIFDIWKGTKFGESVLMEFDSLSFSPLGVYSLAYWARMKGFKVSVVDVLDTLKIYLSYAKMIGLGTSIANDIEVIKLGGRIDSGNVSTRIPITEEKVMEKELMKLYPHEDNEKTIVIVLGIEKFLALWCKLLPDILSFLNFMLSFVGEEWMKSFYFINVDLMKDFSFPALSMLEELSTTVVEISKRGPVLHYIVRKALNPEIDSLEGEIHIKELISEIENPIES” as the sequence, how does the “soluble on expression in E. coli” value read?
**A.** not soluble

**Q.** For “MGSDKIHHHHHHMKKAMVIINPTSGGEKALDYKEKLENKAKEYFEYVETKITEKALDATHFAEEASREQYDAVVVFGGDGTVNEVISGIDERDYIPKLGIIPGGTGNLITKLLEINQDIDGAIDELDFDLTNKIDIGKANDNYFGYIFSIGSLPEAIHNVEIEDKTKFGILTYAVNTMKSVMTDQVFNIKVETENGNYVGEASHVLVLLTNYFADKKIFEENKDGYANILILKDASIFSKLSVIPDLLKGDVVANDNIEYIKARNIKISSDSELESDVDGDKSDNLPVEIKVLAQRVEVFSKPKED”, which “soluble on expression in E. coli” value is on record?
**A.** not soluble

**Q.** For “MGSDKIHHHHHHMKKHKIGIYEKALPKNITWQERLSLAKACGFEFIEMSIDESNDRLSRLNWTKSERIALHQSIIQSGITIPSMCLSAHRRFPFGSKDKKIRQKSFEIMEKAIDLSVNLGIRTIQLAGYDVYYEKQDEETIKYFQEGIEFAVTLAASAQVTLAVEIMDTPFMSSISRWKKWDTIINSPWFTVYPDIGNLSAWNNNIEEELTLGIDKISAIHLKDTYPVTETSKGQFRDVPFGQGCVDFVHFFSLLKKLNYRGAFLIEMWTEKNEEPLLEIIQARKWIVQQMEKAGLLC”, which “soluble on expression in E. coli” value is on record?
**A.** not soluble

**Q.** Which “soluble on expression in E. coli” value does the source give for “MGSDKIHHHHHHMKKKYVTIRDIAEKAGVSINTVSRALNNKPDISEETRRKILKIAQELGYVKNATASSLRSKQTNIVGVIIADSANPFYAEVLKGIEAASRKYGYQIMLMNTERIYENEEKAIEVLLQRRVDGLLITPVQDRSDDIKTLIERKVPFVIVGRHFEELEVDEIHSDEVKGGYLATRHLIERGRKNIIMISGYLFKSAAYMRLEGYRKALKEYGIPFSEKMIIETDIDIESGYRAMREAIEKGLEFEAVFCYNDLLAFGVIKALKECGYRIPEDVAVVGYDDIVYSSFICPSLTTVRIKKFEMGFEAFRMLLQRLKGRRKKRKRVILDVELVVRESG” here?
**A.** not soluble

**Q.** Which “soluble on expression in E. coli” value does the source give for “MGSDKIHHHHHHMKLPIKKAVEALLKLQTTGDSATLIGVGPMSRNLLQASFELAKEDDYPLMFIASRNQVDADELGGGYVNGWNQFSFIDAIKEVAKEVDFDGLYYVCRDHGGPWQRDQERNDHLPTEKAMELGKKSYIADIEAGFDLLMIDPTKDPFEVGKVIPLETVLERTVDLIAFCEEERKKRGLPEIGYEVGTEETNGGLTSTETYEKFITQLKVELEKRDLPLPTFIVGQTGTLTRKTEQVGHFNFKNAYDLAQMAKKYGVGLKEHNGDYLDDVTLLEHIPSEITATNVAPQYGTEETRAYLKLVELEQKLVENGLIKTPSNAREVLLIQSIKSERWRKWMLDGQKDITINEIMQDDDLSLEILDIAGHYTFNDAMVKKEINTLYANLAANNIDGKRFVIDHIKRPIRNYSECYNLKGATTRIKQLAK” here?
**A.** not soluble

**Q.** With “MGSDKIHHHHHHMKLRKQLAQQIVTSIKDVCQQDINFINTKGIIFASTNPKRVGEFHEIGLKVAQTGQMIEVTDQESYFGTQAGINIPFYYNCELLATIGISGNPNQVGKYALLAQKMTRLILKEHELDYLDFGRKNEASIVLHHLVEGRELDYYYLNQFLNQYHLSEKTDYRLLTFEINSQKQKLLLSQSEMSLLNFFDKLDTAIYTFNYPNQYWLLLSDHMFDYYYPNILSKFECEKGLYKVGIGQKSSLSLLKRSYETSILALKALKGQQKVNLVDDLDLELLLTSIDSNIKQYVLNKALVNLSENDKILLNSYFKHNLSLKECSQELFIHKNTVQYRLNKIYESTQLNPRNFKDATLLYLALKSEDINLHKL” as the sequence, how does the “soluble on expression in E. coli” value read?
**A.** not soluble

**Q.** For “MGSDKIHHHHHHMKLVTISGPPSSGKTAVLAGVIRAMMASGLKVGALKYDCLATNDDDVFRAIGVPVQTGLSGNLCPDHYFVSNIEECLDWGIREGFDFLLSESAGLCNRCAPHIKGVLAVCVIDNLMGATTPKKIGPMLKYADIVVITKGDIVSQAEREVFAFQVRRANPRAKIMHVNGITGQGAGELASQFLLAPETTCLDGSRLRFSMPAALCSYCLGETRIGMEFQLGNVKKIKMSEEPAR”, which “soluble on expression in E. coli” value is on record?
**A.** not soluble

**Q.** Which “soluble on expression in E. coli” value does the source give for “MGSDKIHHHHHHMKNIFVFGADEFNLSLMRSLDSAHEYCFHELYQYSEVKTGKEFPVETLYEGALARLNSYPDSVDAIVGYLDFPVSTMLPLLCQSLGLPSPSFEAVLKCEHKYWSRLEQRRVIPEYIPNFCSVDPFKDDYRQQITLDYPFWLKPVKAVLSHLGFMVRDDSELEMAIIEIRKKIYCFAKPFNYLLQFADLPDEIAAVDGYHCIAEGIISHGQQCTLEGYVFDGKLCVYGTVDSIREGEHGSSFSRYQYPSSIPQPIQDKMIAVTERFLTAIDFDNGPFNIEYYWDKDSDHIWLLEINTRISKSHSPLFRNVDGKSHHQIMLDLALGKQPIFPHRKGLYRYSAKFMWRTHADAQVNRVPTEQEIQAITQRIGGTDIQLHVREGMRLSDLNYQDSYSYEIATVFIGGDSEQELLQKYHDVQQALPLELVPLL” here?
**A.** not soluble

**Q.** For “MGSDKIHHHHHHMKNLQVVEKEFSSLPIIDISALVSGKGNLYSAASQIRQACRESGFFYIIGHGVDENLQQRLEELSRQFFAQDLETKLKIRMALAGIAWRGYFPVGGELTSGKPDLKEGIYFGTELPDEHPLVQAGTPMHGANLFPANMPQFGETVLEYIEAMTKLGHTLMTGIAMSLGLEESYFADRYTSDPLVLFRIFNYPPNLSPSDGNPIWGVGEHTDYGVLTILKQDDSGGLQVKSKSGWVAAPPVPGSFVCNIGDMLDKMTGGFYRSTPHRVQNQSQNHRLSFPFFFDPNFDVEVKPIELDNYSSE”, which “soluble on expression in E. coli” value is on record?
**A.** not soluble

**Q.** Which “soluble on expression in E. coli” value does the source give for “MGSDKIHHHHHHMKNVLILSSSPRRGGNSDTLCDEFMQGAIESGHRVEKVFLRDKTIHPCTGCGVCSQYKKPCPQKDDAAEIIGKMLAADVIVMATPVYFYAMSAQMKTLIDRCCGPYTEMKNKEFYFIATAAEEDNGIMDRIVANFMGFLDCLENPTVKGTLFCGGVWHVGEIEGNPTLRQAYEQGKRV” here?
**A.** not soluble

**Q.** Which “soluble on expression in E. coli” value does the source give for “MGSDKIHHHHHHMKPVVVMTQTNDMQSDLVSIIHKPFIDIKPLNFDIHLLNQRYDWLIFSSKNAVKFFYKYLKGINVDNIAVIGSKTAQYCESLGIRVDFMPNDFSQEGFLKSFNQTNQKILLPSSELARPLLLAALSKDNEVVKIDLYTSVPNKQNIQDVKEMIEHQQIDALTFSSSSAVRYYFNEGFVPKFKSYFAIGEQTARTIKTYQQPVTIAEIQTLESLIEKILESRG” here?
**A.** not soluble

**Q.** With “MGSDKIHHHHHHMKQIYLLLLCGVLFACKKKESLPEVQKIGHSGMGLYGDYPINSFESLMQAFLLGADGVEIDVQMTRDGILVLLHDELLDNQTNGTGAVQERTWDEISNLAYDNIALGRYNIIRLDFLLENCGPHIDKLFYFDIKPNAYSTEHLYTLNRNLSTLITKFNLEDNSVLMYQNNAQFLHMLSLRTDLTIYSYSDFNTAKKNILQYKLNGWVASINDIDESKVAQMHEIGARVVGFSTFNKNDHLNLIHKGVDIIQTDNLKNLINLYQ” as the sequence, how does the “soluble on expression in E. coli” value read?
**A.** not soluble

**Q.** For “MGSDKIHHHHHHMKQTILDVDLLAFEQGTRFQQAAVVDGLMRSLGTGFVVTTSDLPSALLDEAYGMLNRFFALEATTKRQFNVPEAFGQTGYTDTLVETAAGEKLPDWKEMLNWAFPLPDNHPLRQRFPTLYPEQLLPEVAVPGITRVLQTFHQTIAELQCRVLRIIATGLGCHNDFFTDLVQDAPTLTRAIRYPPMSEAPAAGHMWAAAHGDINLITALPRATAPGLQVYIDGSWVDAIAPEGQVIVNSGLMLERISNGLIPTGWHRVLAPSQANLERLSVVQFCHPKPSTLLTPLSNCVNESHPQRFAGVMAADALEEVLYKIKLMA”, which “soluble on expression in E. coli” value is on record?
**A.** not soluble

**Q.** Which “soluble on expression in E. coli” value does the source give for “MGSDKIHHHHHHMKRACVIGAGFGGLALAIRLQSGGVQTTLIEARDKPGGRAYFWEKDGFTFDGGPTVITDPACLEELWALKGHRMADDVELMPVMPFYRLNWADGTNFDYSNDDASLRAEIAKLEPADVAGYDDFLRYSAGVFEEGYVKLGAVPFLDFASMIKAAPALARYQAWRSVYSMVSSFVRNEKLREAFSFHTLLVGGNPMTTSAIYALIHKLEKDGGVWWAKGGTNRLIEGMVTHFRRIGGEVRIGDPVTRVETLGTRVTGVETRSGWSGKFDAVASNADVMHSYRDLLSDNSHAKRRAKSLGKKRFSPSLFVVHFGIEGTWPGIPHHMILFGPRYKGLLDDIYTHGVLPQDFSIYLHHPTVTDPSVAPEGMSTFYALVPVANMGKLPVNWDEVGPILEKRILDEVGRRLIPDIHTRIVTKFHYAPSDFSTDLSAHLGSAFSLEPLLTQSAWFRAHNRDDAISNFYLVGAGTHPGAGIPGVVGSAKATARLMLEDLS” here?
**A.** not soluble

**Q.** With “MGSDKIHHHHHHMKRAVGDLIEETMDIVLANPRGFCAGVDRAIIIVEQALEKFGAPIYVRHEVVHNKFVVDDLKKKGAIFVEELDEVPAGNTVIFSAHGVSKDVRAEAEARGLQVFDATCPLVTKVHLEVAKMRASGKEIIMIGHKGHPEVEGTMGQAEGGMYLVESPEDVAMLEVKDPSQLAYVTQTTLSIDDAAAIVSALKAKFPEITPPRSDSICYATQNRQDAVKVMARDCDLVIVVGSPNSSNSNRLREVAQNQGVESYMVDNASFLDPAWIVGKKRIGVSAGASAPEVLVQEVINKLRALGAADVQELNGVVENVVFKIPRNLAEA” as the sequence, how does the “soluble on expression in E. coli” value read?
**A.** not soluble

**Q.** For “MGSDKIHHHHHHMKRQRLAIIDIGSNSIRLVINTINEHGHYQELYNFKTVARLSNHLDAQGNLTKEGTSILLTTLQKFRTLTEDHHCDRAIVVATAAMRKANNRKELLKLAEQETGFSIKLLSEYEEAYFGYLAIVNSTSIQDGITIDIGGGSTEITRFSNRKLLHYHSFPFGAITLYRDFFHSTDPSEEELASLQTFLESAFATLPWLQDAKDLPVIGIGGTARNLSLIHQRQTDYPLAGLHQYSFPAEELHSVTQMLQRLTSSEREGLDGLSKDRVDVIIPGTQAISSLVKTIGSSQFIMSRKGLRDGLFYSEILEQLNLECFPNVVEESFYQLYHQYEINLEHVKQVAKLATKLYEQLAPFYNGKLEHQQNLTLIHRAARVLYLGEHINPEASSQHTFYLLTNMSIDGLNHEERLALACVSSFKSKAQLLHMASPFMPLISKKQLKRFEFLGAILKLAYCLNRTRRHVIGKIGTIEAKRDALVLPLYYHYDLDPSFEQDYALKHVKHVEKVIKKTIELPFLPLSNFT”, which “soluble on expression in E. coli” value is on record?
**A.** not soluble

**Q.** For “MGSDKIHHHHHHMKRVIINADDFGLSDGVNRAVIKAWQEGILTSASLMVGGDAFHEAVHLAKANPGLHVGLHLTLVQGRAVGEHGGFPSICDSKGAFSDDPVQTGMRYFFIRSFRKQLYREIEAQIVRFLQTGLPLSHVDGHLNIHMHPVVFDLLCGLMRKHGITTFRLCRENLRANLTLDRERRFGKMVDAFIFSKLAGRCRPILDHLGIGYAQEVKGLLNSGRMTEEYLLRVLDTLEDGTTELYFHPGCLPCAEITRRMPDYRHEEELAALMSPRVKGRLKELGIELGNYRGEVKTYV”, which “soluble on expression in E. coli” value is on record?
**A.** not soluble
